# Source: publication PMC6650976, “Experimental Insight into the Structural and Functional Roles of the ‘Black’ and ‘Gray’ Clusters in Recoverin, a Calcium Binding Protein with Four EF-Hand Motifs” (Molecules, 2019)
# B1: human recoverin mutant Y86A (natural protein, UniProt P35243 1-200, looked up)
# chain: MGNSKSGALSKEILEELQLNTKFSEEELCSWYQSFLKDCPTGRITQQQFQSIYAKFFPDTDPKAYAQHVFRSFDSNLDGTLDFKEAVIALHMTTAGKTNQKLEWAFSLYDVDGNGTISKNEVLEIVMAIFKMITPEDVKLLPDDENTPEKRAEKIWKYFGKNDDDKLTEKEFIEGTLANKEILRLIQFEPQKVKEKMKNA
# modifications: myristoylated (fraction of non-myristoylated forms did not exceed 16%)
# notes: recoverin, human, UniProt P35243, N-terminal 'black' cluster mutant; Parent construct as m1; source: E. coli, expressed and purified similarly to the rWT protein (phenyl-Sepharose, Toyopearl SuperQ-650M)
# How the values were obtained:
# [1] = molecular target: the molecule itself; experiment: cross-linking; Ca2+-loaded proteins: 0.02% glutaric aldehyde, 16 h, 20 °C, protein 1 mg/mL, 20 mM Tricine-KOH pH 7.4, 50 mM KCl, 1 mM DTT, 1 mM CaCl2; SDS-PAGE, Coomassie, densitometry; self-association
# How it was run: (§1)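 Metal-free recoverin (human, recombinant, E. coli-expressed, purified, treated by gel filtration), along with its modified forms, was crosslinked with 0.02% glutaric aldehyde at 1.0 mg/mL for 16 h at 20 °C. The buffer was 20 mM Tricine-KOH pH 7.4, 50 mM KCl and 1 mM DTT, plus EDTA, MgCl2/EGTA or CaCl2. The share of each oligomer band was quantified in Quantity One as a percentage from scanned, Coomassie-stained gels, which were 15% resolving SDS-PAGE run at 5 µg/lane.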
# [2] = molecular target: the molecule itself; experiment: cross-linking; Mg2+-loaded proteins: 0.02% glutaric aldehyde, 16 h, 20 °C, protein 1 mg/mL, 20 mM Tricine-KOH pH 7.4, 50 mM KCl, 1 mM DTT, 1 mM MgCl2, 1 mM EGTA; SDS-PAGE, Coomassie, densitometry; self-association
# How it was run: as §1
# [3] = molecular target: the molecule itself; experiment: cross-linking; apo-proteins: 0.02% glutaric aldehyde, 16 h, 20 °C, protein 1 mg/mL, 20 mM Tricine-KOH pH 7.4, 50 mM KCl, 1 mM DTT, 1 mM EDTA; SDS-PAGE, Coomassie, densitometry; self-association
# How it was run: as §1
protein,measurement,setting,value
B1,"Dimer 50 kDa, %",[1],28.5 ± 1.4%
same,"Monomer 20 kDa, %",[1],35.8 ± 2.7%
same,"Multimer 100–250 kDa, %",[1],14.2 ± 0.6%
same,"Trimer 70–100 kDa, %",[1],21.5 ± 0.7%
same,"Dimer 50 kDa, %",[2],33.9 ± 0.2%
same,"Monomer 20 kDa, %",[2],66.1 ± 0.2%
same,"Dimer 50 kDa, %",[3],30.7 ± 3%
same,"Monomer 20 kDa, %",[3],69.3 ± 3%
